Laboratory results: PMC2756588

T1: Abp1, P15891
T1 sequence (P15891 535-592, looked up): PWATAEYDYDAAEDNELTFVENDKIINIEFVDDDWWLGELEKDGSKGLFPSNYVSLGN

T2: Bbc1, P47068
T2 sequence (P47068 1-78, looked up): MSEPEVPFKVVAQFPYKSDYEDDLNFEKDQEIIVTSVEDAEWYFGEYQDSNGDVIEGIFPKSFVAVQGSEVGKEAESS

T3: Boi1, P38041
T3 sequence (P38041 1-86, looked up): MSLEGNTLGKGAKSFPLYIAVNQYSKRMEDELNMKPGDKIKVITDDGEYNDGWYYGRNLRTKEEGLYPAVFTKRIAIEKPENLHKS

T4: Boi2, P39969
T4 sequence (P39969 32-116, looked up): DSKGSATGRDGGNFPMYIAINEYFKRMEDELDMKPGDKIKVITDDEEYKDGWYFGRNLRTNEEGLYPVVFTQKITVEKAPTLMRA

T5: Bud14, P27637
T5 sequence (P27637 247-328, looked up): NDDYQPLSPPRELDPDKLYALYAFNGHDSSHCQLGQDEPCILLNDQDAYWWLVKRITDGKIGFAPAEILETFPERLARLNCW

T6: Bzz1-1, P38822
T6 sequence (P38822 478-572, looked up): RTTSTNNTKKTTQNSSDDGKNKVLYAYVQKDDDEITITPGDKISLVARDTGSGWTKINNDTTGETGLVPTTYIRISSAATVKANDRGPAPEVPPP

T7: Bzz1-2, P38822
T7 sequence (P38822 568-633, looked up): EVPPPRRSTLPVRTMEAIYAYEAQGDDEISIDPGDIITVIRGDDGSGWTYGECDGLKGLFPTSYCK

T8: Cdc25, P04821
T8 sequence (P04821 50-136, looked up): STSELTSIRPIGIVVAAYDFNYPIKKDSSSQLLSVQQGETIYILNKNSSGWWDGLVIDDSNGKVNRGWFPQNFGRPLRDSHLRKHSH

T9: Cyk3, Q07533
T9 sequence (Q07533 1-83, looked up): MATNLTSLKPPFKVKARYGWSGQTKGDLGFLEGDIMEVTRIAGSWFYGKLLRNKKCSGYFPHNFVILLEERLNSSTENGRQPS

T10: Fus1, P11710
T10 sequence (P11710 432-512, looked up): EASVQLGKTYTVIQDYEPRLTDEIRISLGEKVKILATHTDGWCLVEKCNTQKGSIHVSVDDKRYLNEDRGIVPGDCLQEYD

T11: Hof1, Q05080
T11 sequence (Q05080 590-669, looked up): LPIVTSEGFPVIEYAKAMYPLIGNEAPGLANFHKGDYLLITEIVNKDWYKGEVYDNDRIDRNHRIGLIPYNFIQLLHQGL

T12: Hse1, P38753
T12 sequence (P38753 208-285, looked up): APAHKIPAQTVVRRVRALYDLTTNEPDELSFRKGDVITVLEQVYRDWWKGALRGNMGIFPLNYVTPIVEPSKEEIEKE

T13: Lsb1, P53281
T13 sequence (P53281 45-122, looked up): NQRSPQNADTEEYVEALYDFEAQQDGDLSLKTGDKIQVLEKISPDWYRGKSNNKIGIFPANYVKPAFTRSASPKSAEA

T14: Lsb3, P43603
T14 sequence (P43603 385-451, looked up): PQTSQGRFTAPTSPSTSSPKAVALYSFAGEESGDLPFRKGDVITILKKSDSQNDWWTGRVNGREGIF

T15: Lsb4, P32793
T15 sequence (P32793 402-468, looked up): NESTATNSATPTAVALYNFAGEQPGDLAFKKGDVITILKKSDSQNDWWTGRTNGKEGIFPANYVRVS

T16: Myo5, Q04439
T16 sequence (Q04439 1072-1160, looked up): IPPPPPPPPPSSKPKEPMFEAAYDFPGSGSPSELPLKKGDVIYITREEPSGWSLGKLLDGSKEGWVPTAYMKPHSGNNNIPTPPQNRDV

T17: Nbp2, Q12163
T17 sequence (Q12163 103-180, looked up): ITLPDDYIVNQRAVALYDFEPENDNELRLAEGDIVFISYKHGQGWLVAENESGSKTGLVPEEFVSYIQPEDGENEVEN

T18: Pex13, P80667
T18 sequence (P80667 295-386, looked up): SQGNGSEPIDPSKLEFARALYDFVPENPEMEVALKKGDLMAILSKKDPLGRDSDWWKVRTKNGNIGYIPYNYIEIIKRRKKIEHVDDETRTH

T19: Pin3, Q06449
T19 sequence (Q06449 53-122, looked up): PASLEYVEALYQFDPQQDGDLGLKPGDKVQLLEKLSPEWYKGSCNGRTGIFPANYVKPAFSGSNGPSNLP

T20: Sla1-2, P32790
T20 sequence (P32790 60-140, looked up): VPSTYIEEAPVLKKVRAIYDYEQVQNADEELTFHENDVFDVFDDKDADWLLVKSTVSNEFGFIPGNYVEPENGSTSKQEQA

T21: Sla1-3, P32790
T21 sequence (P32790 344-424, looked up): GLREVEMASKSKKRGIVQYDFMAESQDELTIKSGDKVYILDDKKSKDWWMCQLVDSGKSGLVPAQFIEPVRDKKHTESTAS


How the values were obtained:
Assay in all cases: SPOT array
Abp1, P15891 = biological target: T1, Abp1, P15891; details: median of control spots 935
Bbc1, P47068 = biological target: T2, Bbc1, P47068; details: median of control spots 796
Bem1-1, P29366 = details: median of control spots 4282
Bem1-2, P29366 = details: median of control spots 4347
Boi1, P38041 = biological target: T3, Boi1, P38041; details: median of control spots 1162
Boi2, P39969 = biological target: T4, Boi2, P39969; details: median of control spots 1161
Bud14, P27637 = biological target: T5, Bud14, P27637; details: median of control spots 956
Bzz1-1, P38822 = biological target: T6, Bzz1-1, P38822; details: median of control spots 4446
Bzz1-2, P38822 = biological target: T7, Bzz1-2, P38822; details: median of control spots 4538
Cdc25, P04821 = biological target: T8, Cdc25, P04821; details: median of control spots 969
Cyk3, Q07533 = biological target: T9, Cyk3, Q07533; details: median of control spots 1451
Fus1, P11710 = biological target: T10, Fus1, P11710; details: median of control spots 1200
GST = details: median of control spots 978
Hof1, Q05080 = biological target: T11, Hof1, Q05080; details: median of control spots 4086
Hse1, P38753 = biological target: T12, Hse1, P38753; details: median of control spots 1727
Lsb1, P53281 = biological target: T13, Lsb1, P53281; details: median of control spots 388
Lsb3, P43603 = biological target: T14, Lsb3, P43603; details: median of control spots 406
Lsb4, P32793 = biological target: T15, Lsb4, P32793; details: median of control spots 397
Myo3, P36006 = details: median of control spots 468
Myo5, Q04439 = biological target: T16, Myo5, Q04439; details: median of control spots 471
Nbp2, Q12163 = biological target: T17, Nbp2, Q12163; details: median of control spots 357
Pex13, P80667 = biological target: T18, Pex13, P80667; details: median of control spots 1341
Pin3, Q06449 = biological target: T19, Pin3, Q06449; details: median of control spots 2171
Rvs167, P39743 = details: median of control spots 2707
Sho1, P40073 = details: median of control spots 1148
Sla1-2, P32790 = biological target: T20, Sla1-2, P32790; details: median of control spots 712
Sla1-3, P32790 = biological target: T21, Sla1-3, P32790; details: median of control spots 5475

Rvs167, P39743, sequence (P39743 419-482): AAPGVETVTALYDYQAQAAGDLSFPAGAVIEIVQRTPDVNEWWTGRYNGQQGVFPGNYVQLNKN
Sho1, P40073, sequence (P40073 287-367): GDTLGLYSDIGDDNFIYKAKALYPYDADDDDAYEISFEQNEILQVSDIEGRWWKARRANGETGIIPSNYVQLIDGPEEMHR
Bem1-1, P29366, sequence (P29366 55-141): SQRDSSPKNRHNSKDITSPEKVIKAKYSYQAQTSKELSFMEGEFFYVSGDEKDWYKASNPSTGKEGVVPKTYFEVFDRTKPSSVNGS
Bem1-2, P29366, sequence (P29366 139-227): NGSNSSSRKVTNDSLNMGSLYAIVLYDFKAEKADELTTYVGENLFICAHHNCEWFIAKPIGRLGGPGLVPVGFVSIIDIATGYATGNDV

Binder | SPOT intensity (Abp1, P15891) | SPOT intensity (Bbc1, P47068) | SPOT intensity (Bem1-1, P29366) | SPOT intensity (Bem1-2, P29366) | SPOT intensity (Boi1, P38041) | SPOT intensity (Boi2, P39969) | SPOT intensity (Bud14, P27637) | SPOT intensity (Bzz1-1, P38822) | SPOT intensity (Bzz1-2, P38822) | SPOT intensity (Cdc25, P04821) | SPOT intensity (Cyk3, Q07533) | SPOT intensity (Fus1, P11710) | SPOT intensity (GST) | SPOT intensity (Hof1, Q05080) | SPOT intensity (Hse1, P38753) | SPOT intensity (Lsb1, P53281) | SPOT intensity (Lsb3, P43603) | SPOT intensity (Lsb4, P32793) | SPOT intensity (Myo3, P36006) | SPOT intensity (Myo5, Q04439) | other results
KTKQQKPAIPQKKSF | 617 | 1 | 0 | 5 | 0 | 0 | 0 | 0 | 9 | 3 | 0 | 0 | 1 | 0 | 6 | 0 | 4 | 2 | 2 | 1 | SPOT intensity (Nbp2, Q12163): 0; SPOT intensity (Pex13, P80667): 5; SPOT intensity (Pin3, Q06449): 3; SPOT intensity (Rvs167, P39743): 4; SPOT intensity (Sho1, P40073): 38; SPOT intensity (Sla1-2, P32790): 0; SPOT intensity (Sla1-3, P32790): 0
QTREPNEPPPPSPAM | 7 | 0 | 1 | 0 | 0 | 3 | 0 | 0 | 0 | 0 | 1 | 0 | 0 | 0 | 0 | 0 | 2 | 13 | 502 | 515 | SPOT intensity (Nbp2, Q12163): 0; SPOT intensity (Pex13, P80667): 7; SPOT intensity (Pin3, Q06449): 21; SPOT intensity (Rvs167, P39743): 4; SPOT intensity (Sho1, P40073): 0; SPOT intensity (Sla1-2, P32790): 0; SPOT intensity (Sla1-3, P32790): 0
AAHKTKPSIPPKKVE | 239 | 0 | 0 | 0 | 0 | 1 | 0 | 0 | 0 | 0 | 0 | 1 | 0 | 0 | 0 | 0 | 0 | 0 | 0 | 0 | SPOT intensity (Nbp2, Q12163): 0; SPOT intensity (Pex13, P80667): 2; SPOT intensity (Pin3, Q06449): 0; SPOT intensity (Rvs167, P39743): 0; SPOT intensity (Sho1, P40073): 4; SPOT intensity (Sla1-2, P32790): 0; SPOT intensity (Sla1-3, P32790): 0
MTKTPETSPPKRPMG | 75 | 0 | 0 | 3 | 0 | 0 | 0 | 3 | 4 | 2 | 0 | 0 | 0 | 16 | 0 | 3 | 34 | 36 | 455 | 499 | SPOT intensity (Nbp2, Q12163): 0; SPOT intensity (Pex13, P80667): 8; SPOT intensity (Pin3, Q06449): 24; SPOT intensity (Rvs167, P39743): 0; SPOT intensity (Sho1, P40073): 5; SPOT intensity (Sla1-2, P32790): 2; SPOT intensity (Sla1-3, P32790): 0
